These are literature values, as cited in paper PMC5031454.

The target of this data set is Dscam1 Ig1-4 (Drosophila melanogaster) (UniProt Q0E9H9).
UniProt Q0E9H9, sequence (Q0E9H9 39-421): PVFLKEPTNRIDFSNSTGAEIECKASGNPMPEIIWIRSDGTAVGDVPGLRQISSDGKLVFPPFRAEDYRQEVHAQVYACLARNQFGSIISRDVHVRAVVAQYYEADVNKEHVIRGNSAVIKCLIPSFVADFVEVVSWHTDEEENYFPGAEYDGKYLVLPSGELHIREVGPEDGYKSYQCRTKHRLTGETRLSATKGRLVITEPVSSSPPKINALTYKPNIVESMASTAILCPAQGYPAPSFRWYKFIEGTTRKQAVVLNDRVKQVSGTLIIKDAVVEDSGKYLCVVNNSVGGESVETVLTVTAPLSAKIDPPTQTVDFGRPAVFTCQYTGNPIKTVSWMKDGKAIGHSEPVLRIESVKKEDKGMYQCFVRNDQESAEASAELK

Consider “Slit-N N-terminal fragment (from UniProt P24014)”, for which the Kd (in general, the constant that tells how readily two partners part at equilibrium) was 22 nM.
